Experimental findings from article PMC4303316 (Biochemistry, 2014) are described below.

The Kd is the constant that tells how readily two partners part at equilibrium. A high value points to a looser complex.

No end group written: not given here.

The chains are these.
B3: EhRacC^Q65L (GTPase-deficient EhRacC mutant, GTP-bound) (enzyme, Entamoeba histolytica (strain HM-1:IMSS), UniProt Q24816 1-182, looked up)
chain: MSEKPTSIKLVVVGDGAVGKTCLLISYSIRKFPEDYIPTVFDNYVVSLTAGTRQIQLALWDTAGLEEYDQLRPLSYSSASIFLICFSVTSSVSYDNVITKWHPEVIHFAPKVPIILVGTKLDTRNDPAIVKRLTEQGMTVINTAKGEELKNRIKAVKYIECSAKTSENLKTVFDEAVKTVLM

Experiment [1] has as its target B3. Description: SPR. For orientation: In SPR one partner is held on a chip, and binding of the other changes the refractive index at the surface.
Experiment [2] addresses T1, EhPAK4 PBD, tag removed (crystallographic construct) (Entamoeba histolytica (strain HM-1:IMSS), UniProt C4LSU1 12-78).
T1 sequence (looked up): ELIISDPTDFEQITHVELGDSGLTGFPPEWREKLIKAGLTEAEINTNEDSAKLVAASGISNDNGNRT
As to the kind of experiment: SEC. (In general: Size exclusion chromatography separates by hydrodynamic size, large species first.)

B1: His6-EhPAK4 PBD (p21 binding domain of Entamoeba histolytica p21-activated kinase 4) (domain or fragment, Entamoeba histolytica (strain HM-1:IMSS), UniProt C4LSU1 12-78, looked up)
chain: ELIISDPTDFEQITHVELGDSGLTGFPPEWREKLIKAGLTEAEINTNEDSAKLVAASGISNDNGNRT
In turn, B1 came in with a Kd in experiment [1] of 170 ± 30 nM.

B2: His6-EhPAK5 PBD (p21 binding domain of Entamoeba histolytica p21-activated kinase 5) (domain or fragment, Entamoeba histolytica (strain HM-1:IMSS), UniProt C4MBQ2 105-161, looked up)
chain: His6-DISEPTDYHHLTHVAYEEGGFVGIPYEWENVFLACGITREEIKSNKEDAIKVLEFTQ
Turning to B2, the affinity in experiment [1], expressed as Kd, was 1900 ± 200 nM. Take B3: in experiment [2], the “stoichiometry N” value is 1 EhRacC:EhPAK4.
